Source: PMC2757703

System: 40S small ribosomal subunit (rabbit reticulocyte lysate) (rabbit)
Experiment: sucrose density gradient
Conditions: EMSA: 20 mM Tris pH 7.6, 50 mM KCl, 2.5 mM MgOAc, 0.05% NP40, 1 mM DTT, 1 ug/uL yeast tRNA, 30 C 20 min, gradients: 20 mM Tris-HCl pH 7.5, 100 mM KOAc

Substance	binding signal (scale: % of labeled RNA in small-subunit fractions)	binding signal (% of labeled RNA bound to small subunit)
GLV IRES RNA	10	–
CrPV IRES RNA	–	> 50
